Experimental data: PMC11368712

How the values were obtained:
[1] = target: AgaBb1180 (Bifidobacterium bifidum JCM 1254); assay: SEC
[2] = target: AgaBb1191 (α-galactosidase from Bifidobacterium bifidum JCM 1254, residues 23-1191, without the N-terminal T7-tag) (Bifidobacterium bifidum JCM 1254); assay: SEC

Substance	stoichiometry N [1]	stoichiometry N [2]
AgaBb1180 (domain or fragment)	2	–
AgaBb1191 (α-galactosidase from Bifidobacterium bifidum JCM 1254, residues 23-1191, without the N-terminal T7-tag) (domain or fragment)	–	2
